The text below walks through data of paper PMC10516654, “Structural and functional characterization of MrpR, the master repressor of the Bacillus subtilis prophage SPβ”.

Common to all, as to experiment: ITC; ITC: 20 mM HEPES-Na pH 7.5, 200 mM NaCl, 20 mM KCl, 25 C, 20 uM DNA in cell, protein in syringe, one set of sites; EMSA: same buffer plus 50 ug/ml herring sperm DNA, 50 nM DNA, RT 15 min, 6% native PAGE 0.5x TBE
Common to all, as to settings: protein: recombinant; tags: C-terminal His6; blunt

In one data set the target is T1, MrpR Y304F (Bacillus subtilis prophage SPβ, UniProt O34558 1-325, Y304F).
T1 sequence: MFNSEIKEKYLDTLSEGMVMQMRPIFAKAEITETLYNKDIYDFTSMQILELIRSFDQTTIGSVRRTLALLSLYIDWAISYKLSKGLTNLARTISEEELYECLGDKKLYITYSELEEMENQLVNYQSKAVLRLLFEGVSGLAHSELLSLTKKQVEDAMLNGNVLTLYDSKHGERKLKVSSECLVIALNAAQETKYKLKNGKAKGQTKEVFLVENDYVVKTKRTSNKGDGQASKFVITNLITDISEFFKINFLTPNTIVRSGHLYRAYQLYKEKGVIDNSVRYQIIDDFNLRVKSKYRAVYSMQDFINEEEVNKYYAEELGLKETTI

Another data set addresses T2, MrpR G136E (Bacillus subtilis prophage SPβ c2, UniProt O34558 1-325, G136E).
T2 sequence: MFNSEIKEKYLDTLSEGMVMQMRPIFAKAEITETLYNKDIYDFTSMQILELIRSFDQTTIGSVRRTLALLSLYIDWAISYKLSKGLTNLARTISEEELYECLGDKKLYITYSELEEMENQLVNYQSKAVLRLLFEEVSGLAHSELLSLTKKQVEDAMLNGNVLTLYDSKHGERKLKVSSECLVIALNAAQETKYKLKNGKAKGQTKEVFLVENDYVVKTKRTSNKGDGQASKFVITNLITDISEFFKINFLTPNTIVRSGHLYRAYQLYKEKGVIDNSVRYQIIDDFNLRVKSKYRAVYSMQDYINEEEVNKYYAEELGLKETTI

Another data set has as its target T3, MrpR K169A (Bacillus subtilis prophage SPβ, UniProt O34558 1-325, K169A).
T3 sequence: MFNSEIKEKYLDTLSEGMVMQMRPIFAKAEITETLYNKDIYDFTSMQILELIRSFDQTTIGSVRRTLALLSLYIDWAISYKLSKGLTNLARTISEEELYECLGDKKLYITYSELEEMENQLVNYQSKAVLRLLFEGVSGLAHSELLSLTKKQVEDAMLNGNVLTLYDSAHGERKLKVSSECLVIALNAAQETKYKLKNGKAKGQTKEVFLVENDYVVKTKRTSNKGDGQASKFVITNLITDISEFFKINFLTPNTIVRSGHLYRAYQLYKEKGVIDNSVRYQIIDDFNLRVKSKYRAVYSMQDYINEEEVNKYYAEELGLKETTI

As a reminder, the Kd is the constant that tells how readily two partners part at equilibrium.

B1: aimR promoter ITC duplex (LC292/LC293) (dsDNA)
DNA 1: GAATTTTAAAGAGATTACAAATACAAAAAATATGTATAAAATAATTGACTCGTAATG
DNA 2: CATTACGAGTCAATTATTTTATACATATTTTTTGTATTTGTAATCTCTTTAAAATTC
Take B1: the Kd with MrpR Y304F was 1340 ± 500 nM; in the data set with MrpR G136E it was 1690 ± 690 nM; with MrpR K169A, 346 ± 150 nM.
